What was measured:
[1] = molecular target: human IL-20 (interleukin-20), recombinant (human) (UniProt Q9NYY1); assay: SPR, BIAcore T100; antibody captured on anti-human IgG CM5 chip, IL-20 as analyte, 1:1 model
[2] = molecular target: human IL-20 (interleukin-20), recombinant (human) (UniProt Q9NYY1); assay: binding kinetics of CDR mutants; method not named

Sequence of human IL-20 (interleukin-20), recombinant (human) (Q9NYY1 25-176 limits assumed): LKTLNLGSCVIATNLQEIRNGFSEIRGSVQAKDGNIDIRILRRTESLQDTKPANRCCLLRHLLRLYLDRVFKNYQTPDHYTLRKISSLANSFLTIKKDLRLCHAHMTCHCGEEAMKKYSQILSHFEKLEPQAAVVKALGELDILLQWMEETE

Kd [1]: 2.68 nM
koff [1]: 0.00358 s⁻¹
kon [1]: 1.34e+06 M⁻¹ s⁻¹
Kd [2]: 2.68 nM
koff [2]: 0.00358 s⁻¹
kon [2]: 1.34e+06 M⁻¹ s⁻¹
B1: HH12 humanized anti-IL-20 antibody (antibody, V domains shown)
VH: EVQLQESGGGLVQPGGSLRLSCAASGFTFSDAWMDWVRQAPGKGLEWVGEIRSKANNYATYFAESVKGRFTISRDDSKNSLYLQMNSLKTEDTGVYYCTKLSLRYWFFDVWGQGTLVTVSS
VL: DIQMTQSPLSLSVTPGQPASISCKSSQSLLDSDGKTYLNWYQQKPGQSPQLLIYLVSKLDSGVPDRFSGSGSGTDFTLKISRVEAEDVGVYYCWQSTHFPWTFGQGTKVEIKR

— US20160068595A1
